Measurements: PMC3076674 (Nature structural & molecular biology, 2011)

Molecular target: T1, MED25 VP16-binding domain (VBD) (human, UniProt Q71SY5 390-553)
T1 sequence (looked up): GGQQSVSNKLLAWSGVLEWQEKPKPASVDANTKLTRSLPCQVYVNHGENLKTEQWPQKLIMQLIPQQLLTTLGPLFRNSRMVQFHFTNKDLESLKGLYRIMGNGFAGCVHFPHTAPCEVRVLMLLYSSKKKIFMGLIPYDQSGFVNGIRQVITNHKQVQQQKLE
Assay: ITC

B1: VP16 TAD (full-length transactivation domain, amino acids 411-490) (domain or fragment, Herpes simplex virus 1, UniProt P06492 411-490, looked up)
chain: STAPPTDVSLGDELHLDGEDVAMAHADALDDFDLDMLGDGDSPGPGFTPHDSAPYGALDMADFEFEQMFTDALGIDEYGG
Work on B1 yielded a Kd of about 50 nM.
